Data: article PMC10175749
Positions count from the first letter of the chain named. Numbers in names are those of the source.

B1: RcFPPS2 (Rosa chinensis) (protein)
chain: MSNLRAKFMEVYSVLKSELINDPAFEFTDVSRQWIERMLDYNVPGGKLNRGLSVVDSFKLLKEGRELTDEEVFQSCALGWCIEWLQAYFLVLDDIMDGSHTRRGQPCWFRQPKIGMIAANDGIILRNHIPRILKNHFRVMPYYVDLLDLFNEVEFQTAHGQMIDLITTHEGEKDLSKYSLEIHRRIVQYKTAYYSFYLPVACALVMAGKNVESHADVKNILIEMGTYFQVQDDYLDCFGDPEVIGKVGTDIQDFKCSWMVVKALELSNEEQKKLLHENYGKDDQECIAKVKELYNVLDLQGVFTEYESSSYDKLTKSIEAHPSKAVQAVLKSFLAKIYKRQK
B2: RcG/FPPS1 (Rosa chinensis; F88Y) (protein)
chain: MADLKSKFLNVYSVLKSELLEDPAFEFTDASRQWVERMLDYNVPGGKLNRGLSVIDSYQLLQQGRELTEDEIFQASALGWCIEWLQAYFLVLDDMMDGSHTRRGQPCWFRLPKVGLIAANDGVLLRNHIPRILKKHFRQKPYYVDLVDLFNEVEFQTASGQLIDLITTIDGEKDLSKYSLSIHRRIVQYKTAYYSFYLSVACALLMSGEELDKHIDVKNLLVDMGIYFQVQDDYLDCFGDPETIGKIGTDIEDFKCSWLVVKALELSNEEQKKILHENYGNPDPAKVAKVKALYKELDLQGVFAEYERQSYEKLISSIEAHPSKAVQEVLKSFLGKIYKRKK
B3: RcG/FPPS1 (Rosa chinensis; F88Y/V123I) (protein)
chain: B2 chain with V123I
B4: RcG/FPPS1 (Rosa chinensis; V123I) (protein)
chain: B2 chain with Y88F, V123I
B5: RcG/FPPS1 (Rosa chinensis) (protein)
chain: B2 chain with Y88F

Substrate: C=C(C)CCO[P@@](=O)(O)OP(=O)(O)O
Assay: purified protein
Settings: IPP 0.5-50 µM
[1] = co-substrate GPP 60 µM, FPP formation

Row | Protein | Km [1] | Km (co-substrate DMAPP 60 µM, GPP formation)
1 | B1 | 13.1 ± 3.4 µM | –
2 | B2 | 9.08 ± 0.74 µM | –
3 | B3 | 12.78 ± 3.07 µM | –
4 | B4 | 14.74 ± 1.94 µM | –
5 | B5 | – | 0.44 ± 0.03 µM
